# B1: RNA polymerase II-associated protein 1 (Saccharomyces cerevisiae), P38351 (parent)
# chain: MSKKQEYIAPIKYQNSLPVPQLPPKLLVYPESPETNADSSQLINSLYIKTNVTNLIQQDEDLGMPVDLMKFPGLLNKLDSKLLYGFDNVKLDKDDRILLRDPRIDRLTKTDISKVTFLRRTEYVSNTIAAHDNTSLKRKRRLDDGDSDDENLDVNHIISRVEGTFNKTDKWQHPVKKGVKMVKKWDLLPDTASMDQVYFILKFMGSASLDTKEKKSLNTGIFRPVELEEDEWISMYATDHKDSAILENELEKGMDEMDDDSHEGKIYKFKRIRDYDMKQVAEKPMTELAIRLNDKDGIAYYKPLRSKIELRRRRVNDIIKPLVKEHDIDQLNVTLRNPSTKEANIRDKLRMKFDPINFATVDEEDDEDEEQPEDVKKESEGDSKTEGSEQEGENEKDEEIKQEKENEQDEENKQDENRAADTPETSDAVHTEQKPEEEKETLQEE
# partner: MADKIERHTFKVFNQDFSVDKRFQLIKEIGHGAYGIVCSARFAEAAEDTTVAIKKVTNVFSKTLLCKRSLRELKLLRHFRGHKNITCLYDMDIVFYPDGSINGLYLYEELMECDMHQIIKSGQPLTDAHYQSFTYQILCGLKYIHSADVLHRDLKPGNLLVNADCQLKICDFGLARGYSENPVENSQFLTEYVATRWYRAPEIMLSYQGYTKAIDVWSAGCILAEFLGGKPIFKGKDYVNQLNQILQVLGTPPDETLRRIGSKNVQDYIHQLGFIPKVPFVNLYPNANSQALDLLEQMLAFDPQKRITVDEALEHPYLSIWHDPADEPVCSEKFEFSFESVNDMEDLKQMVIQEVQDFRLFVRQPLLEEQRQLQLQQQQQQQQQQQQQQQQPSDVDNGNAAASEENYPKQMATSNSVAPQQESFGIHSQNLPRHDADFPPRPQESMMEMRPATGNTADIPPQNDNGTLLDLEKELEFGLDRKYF
# Variants of: B1
# Conditions: with slt2_yeast SLT2, Q00772
row,Variant,effect of a mutation on the interaction
1,MSKKQEYIAPIKYQNSLPVPQLPPKLLVYPESPETNADSSQLINSLYIKTNVTNLIQQDEDLGMPVDLMKFPGLLNKLDSKLLYGFDNVKLDKDDRILLRDPRIDRLTKTDISKVTFLRRTEYVSNTIAAHDNTSLKRKRRLDDGDSDDENLDVNHIISRVEGTFNKTDKWQHPVKKGVKMVKKWDLLPDAAFMDQVYFILKFMGSASLDTKEKKSLNTGIFRPVELEEDEWISMYATDHKDSAILENELEKGMDEMDDDSHEGKIYKFKRIRDYDMKQVAEKPMTELAIRLNDKDGIAYYKPLRSKIELRRRRVNDIIKPLVKEHDIDQLNVTLRNPSTKEANIRDKLRMKFDPINFATVDEEDDEDEEQPEDVKKESEGDSKTEGSEQEGENEKDEEIKQEKENEQDEENKQDENRAADTPETSDAVHTEQKPEEEKETLQEE [T191A;S193F],decreasing interaction

# Reference: IntAct's records for PubMed 21376235
